Results as given in patent publication US20140323404A1 (GUANGDONG MEDICAL COLLEGE, published 2014).

B1: NAPTin-3 (peptide)
chain: NPSCGENERHDECSRKECDPKCKYDGTEEKDDEKPVVCLTRVCYGDCICRDGFLRNKNGACVKAEDCELDNM
B2: NAPTin-6 (peptide)
chain: NPSCGENERHDECSRKECDPKCKYDGTEEKDDEKPVVCLTRVCYGDCICRDGFLRNKNGACVKAEDCE
B3: NAPTin-7 (peptide)
chain: NPSCGENERHDECSRKECDPKCKYDGTEEKDDEKPVVCLTRVCYGDCICRDGFLRNKNGACVKAEDC
B4: NAPTin-4 (peptide)
chain: NPSCGENERHDECSRKECDPKCKYDGTEEKDDEKPVVCLTRVCYGDCICRDGFLRNKNGACVKAEDCELDNME
B5: NAPTin-9 (peptide)
chain: NPSCGENERHDECSRKECDPKCKYDGTEEKDDEKPVVCLTRVCYGDCICRDGFLRNKNGACVKAEDCELDNMEFI
B6: NAPTin-5 (peptide)
chain: NPSCGENERHDECSRKECDPKCKYDGTEEKDDEKPVVCLTRVCYGDCICRDGFLRNKNGACVKAEDCEL
B7: NAPTin-2 (peptide)
chain: NPSCGENERHDECSRKECDPKCKYDGTEEKDDEKPVVCLTRVCYGDCICRDGFLRNKNGACVKAEDCELDN
B8: NAPTin-8 (peptide)
chain: NPSCGENERHDECSRKECDPKCKYDGTEEKDDEKPVVCLTRVCYGDCICRDGFLRNKNGACVKAEDCELDNMEF

What follows are binders tested against Human coagulation factor XIa (human, UniProt P03951 19-625) (assay: cell-based or functional assay).
With B1 the “inhibition of fXIa activity, chromogenic assay, polypeptide at 100 nM” value (“inhibition of fXIa activity” below) was greater than 90%.
With B2 the “inhibition of fXIa activity” value was greater than 90%.
In the case of B3, the “inhibition of fXIa activity” value is reported as greater than 90%.
For B4, the “inhibition of fXIa activity” value was greater than 90%.
For B5, the “inhibition of fXIa activity” value was greater than 90%.
In the case of B6, the “inhibition of fXIa activity” value is reported as greater than 90%.
For B7, the “inhibition of fXIa activity” value was greater than 90%.
For B8, the “inhibition of fXIa activity” value was greater than 90%.
